Where no end group is shown, it is not given here.
T1: CAβBP peptide (catalase residues 400-409) (human, UniProt P04040 400-409)
T1 construct: range 400-409; 20 covers only catalase 402-414; also called CAIIBP; CARBP
T1 peptide (looked up): GAPNYYPNSF

B1: Aβ 25-35 (peptide)
peptide: GSNKGAIIGLM
modifications: also: biotinylated in some assays, site not given here
notes: Used both biotinylated and unlabelled; also called biotinylated Aβ 25-35
B2: EAβBP peptide (ERAB residues 99-108) (peptide, UniProt Q99714 99-108, looked up)
peptide: KTYNLKKGQT
notes: range 99-108; 21 covers only ERAB 101-109; also called EAβBD

Key:
[1] = target: B2; assay: ELISA, EAβBP-coated plate
Description: (§1) After washing to remove unbound material, an alkaline phosphatase polymer-streptavidin conjugate (Sigma, Dorset, UK) was added and incubated at 37° C. for 2 hours. After washing to remove unbound material, p-nitrophenylphosphate substrate was added and absorbance at 405 nm determined.

[2] = target: T2, recombinant human cdc2 (human, UniProt P06493 1-297, limits assumed); assay: ELISA, cdc2-coated plate, biotinylated peptide 200 pM
T2 construct: Coated on ELISA plates at 1 µg/ml; also called p34-cdc2
Description: (§2) ELISA plates were coated with recombinant human cdc2 or the cdc2 119-133 peptide fragment (CDKP1) (1 μg ml⁻¹) in carbonate buffer and unoccupied sites blocked with 5% (w/v) dried milk. […] After washing to remove unbound material, an alkaline phosphatase polymer-streptavidin conjugate (Sigma, Dorset, UK) was added and incubated at 37° C. for 2 hours. After washing to remove unbound material p-nitrophenylphosphate substrate was added and absorbance at 405 nm determined.

[3] = target: T3, recombinant human cyclin B1 (human, UniProt P14635 1-433, limits assumed); assay: ELISA, cyclin B1-coated plate
T3 construct: Coated on ELISA plates
Description: as §2
Cyclins are co-factors for cdc2 which are required for enzyme activity. These proteins also contain substrate recognition sequences which may play a role in the recruitment of substrate molecules to the active cdc2/cyclin complex. The recombinant cdc2/cyclin enzyme complex used in the above phosphorylation experiments contained cyclin B1. […] Binding assays as described above using cyclin B1 coated plates were carried out.

[4] = target: T4, Aβ 1-42 (biotinylated (LinKit-Biolink kit, site not stated) where used as the labelled tracer; unlabelled where used as competitor or in activity assays); assay: competition ELISA, EAβBP-coated plate, Scatchard analysis
T4 construct: catalase and cytotoxicity assays; also called biotinylated Aβ 1-42; Amyloid-β 1-42
Description: as §1

[5] = target: T1, CAβBP peptide (catalase residues …); assay: ELISA, CAβBP-coated plate
Description: as §1

T3 sequence (P14635 whole entry): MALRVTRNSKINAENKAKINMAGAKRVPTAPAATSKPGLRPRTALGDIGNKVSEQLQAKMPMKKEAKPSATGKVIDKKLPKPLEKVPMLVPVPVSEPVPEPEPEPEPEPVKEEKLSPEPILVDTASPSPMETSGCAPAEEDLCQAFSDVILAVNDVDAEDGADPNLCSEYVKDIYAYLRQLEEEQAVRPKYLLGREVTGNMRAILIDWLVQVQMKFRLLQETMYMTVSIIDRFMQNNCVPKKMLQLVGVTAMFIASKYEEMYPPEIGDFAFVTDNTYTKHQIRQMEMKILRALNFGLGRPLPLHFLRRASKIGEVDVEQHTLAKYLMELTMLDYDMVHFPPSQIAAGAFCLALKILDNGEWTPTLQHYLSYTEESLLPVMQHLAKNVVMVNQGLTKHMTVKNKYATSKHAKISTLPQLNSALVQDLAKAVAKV
T2 sequence (P06493 whole entry): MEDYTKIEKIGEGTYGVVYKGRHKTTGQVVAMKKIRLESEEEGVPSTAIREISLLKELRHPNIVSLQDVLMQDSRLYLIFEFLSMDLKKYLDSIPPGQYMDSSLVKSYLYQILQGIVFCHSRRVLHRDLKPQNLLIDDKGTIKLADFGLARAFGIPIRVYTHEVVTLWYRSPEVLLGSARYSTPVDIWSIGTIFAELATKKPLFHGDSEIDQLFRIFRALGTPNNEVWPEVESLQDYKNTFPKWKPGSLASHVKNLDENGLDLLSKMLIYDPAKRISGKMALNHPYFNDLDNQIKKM

B1
binding result [1]: no binding (tested: 200 pM biotinylated peptide)
binding result [2]: binds
binding result [3]: binds

B2
Kd [4]: 107 nM

VHHQKLVFFAEDVGSNK (also: biotinylated, site not given here, also called biotinylated Aβ 12-28) [Aβ 12-28]
binding result [5]: no binding (tested: 200 pM biotinylated peptide)
